Test results published in paper PMC5082570, “Structure and biochemical properties of recombinant human dimethylglycine dehydrogenase and comparison to the disease‐related H109R variant” (The Febs Journal, 2016).
Residue numbers refer to the chain shown, from its start. Numbers in names are those of the source.

Legend:
[1] = molecular target: T1, human dimethylglycine dehydrogenase (hDMGDH) (Homo sapiens, UniProt Q9UI17); assay: stopped flow, FAD reduction at […] nm, hyperbolic fit of kobs; assay type: biochemical; details: anaerobic, 50 mM HEPES/NaOH, 150 mM NaCl, pH 7.8, 25 °C; pre-steady-state; read-out: K D,DMG
T1 construct: gene DMGDH; covalent FAD at His91
T1 sequence (Q9UI17 29-866): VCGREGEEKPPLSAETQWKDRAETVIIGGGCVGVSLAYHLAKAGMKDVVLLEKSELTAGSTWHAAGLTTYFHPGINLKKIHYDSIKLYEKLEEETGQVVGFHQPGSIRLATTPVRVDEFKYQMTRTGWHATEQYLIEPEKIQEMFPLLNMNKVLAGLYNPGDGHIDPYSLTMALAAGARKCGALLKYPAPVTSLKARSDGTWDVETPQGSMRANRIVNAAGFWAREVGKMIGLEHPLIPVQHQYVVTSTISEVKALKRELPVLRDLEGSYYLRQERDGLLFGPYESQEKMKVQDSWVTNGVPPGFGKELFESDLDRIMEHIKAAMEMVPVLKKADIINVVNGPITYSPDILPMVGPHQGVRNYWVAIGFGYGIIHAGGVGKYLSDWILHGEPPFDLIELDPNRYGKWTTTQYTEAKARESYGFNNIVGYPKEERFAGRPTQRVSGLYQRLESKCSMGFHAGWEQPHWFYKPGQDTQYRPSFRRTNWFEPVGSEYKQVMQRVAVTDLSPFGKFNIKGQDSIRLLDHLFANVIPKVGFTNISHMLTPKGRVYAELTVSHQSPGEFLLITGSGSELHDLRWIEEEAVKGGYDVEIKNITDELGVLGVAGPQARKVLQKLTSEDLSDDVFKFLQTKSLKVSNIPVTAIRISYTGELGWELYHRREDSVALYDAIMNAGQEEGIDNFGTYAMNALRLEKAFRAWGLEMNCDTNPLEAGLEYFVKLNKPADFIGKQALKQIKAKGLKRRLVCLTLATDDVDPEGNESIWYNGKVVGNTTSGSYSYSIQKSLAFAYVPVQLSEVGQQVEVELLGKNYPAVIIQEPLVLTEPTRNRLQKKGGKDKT

[2] = molecular target: T1, human dimethylglycine dehydrogenase (hDMGDH); assay: ferrocenium activity assay against THF concentration; assay type: biochemical; details: 1 mM DMG, 0.2 mM ferrocene, 0-75 μM THF, 50 mM HEPES/NaOH, 150 mM NaCl, 0.1 mM EDTA, pH 7.8, 25 °C; physiological methyl acceptor
[3] = molecular target: T1, human dimethylglycine dehydrogenase (hDMGDH); assay: X-ray crystal structure, […] Å; assay type: binding; details: covalent; 8alpha-methyl group linked to N3 of His91
purified protein = substrate: CN(C)CC(=O)O; assay: purified protein; assay type: biochemical, Homo sapiens; details: 0.2 mM ferrocenium hexafluorophosphate as electron acceptor, 50 mM HEPES/NaOH, 150 mM NaCl, 0.1 mM EDTA, pH 7.8, 25 °C
[4] = natural disease variant, partly apoprotein

## CN(C)CC(=O)O [DMG, dimethylglycine]
[1]
  Kd: 4.9 ± 0.3 mM

## Nc1nc2c(c(=O)[nH]1)N[C@@H](CNc1ccc(C(=O)N[C@@H](CCC(=O)O)C(=O)O)cc1)CN2 [THF, tetrahydrofolate]
[2]
  activity: the activity of WT decreases as a function of the THF concentration

## Cc1cc2nc3c(=O)[nH]c(=O)nc-3n(C[C@H](O)[C@H](O)[C@H](O)COP(=O)(O)OP(=O)(O)OC[C@H]3O[C@@H](n4cnc5c(N)ncnc54)[C@H](O)[C@@H]3O)c2cc1C [FAD, flavin adenine dinucleotide]
[3]
  X-ray crystal structure, 3.1 Å: The FAD cofactor is covalently attached to the protein through a linkage between N3

B1: human dimethylglycine dehydrogenase (hDMGDH) (Homo sapiens) (protein)
chain: T1 sequence (Q9UI17 29-866)
notes: covalent FAD at His91
Purified protein
  Km: 1.4 ± 0.1 mM
  Vmax: 22.1 µM/min
  kcat: 3.55 ± 0.0667 s⁻¹
  kcat/Km: 2280 ± 267 M⁻¹ s⁻¹

B2: human dimethylglycine dehydrogenase (hDMGDH) (Homo sapiens; H109R) (protein)
chain: T1 sequence (Q9UI17 29-866) with H81R
notes: covalent FAD at His91
Purified protein; [4]
  Km: 32.2 ± 5.6 mM
  Vmax: 44.1 µM/min
  kcat: 9.07 ± 0.667 s⁻¹
  kcat/Km: 183 ± 16.7 M⁻¹ s⁻¹
